B1: humanized anti-human PD-L1 monoclonal antibody VLS10-VHS7 (antibody, human IgG1, kappa, V domains shown)
VH: QVQLVQSGAEVKKPGSSVKVSCTASGFNIEDTYIHWVRQAPGQGLEWMGRIDPANGNTKYDPKFQGRVTITADTSTNTAYMELSSLRSEDTAVYYCGRGLGAWFAYWGQGTLVTVSS
VL: DIQMTQSPSSLSASVGDRVTITCKASQDVHTAVAWIHQKPGKAPKLLIYSASNRYTGVPSRFSGSGSGTDFTFTISSLQPEDIATYYCQQHYITPLTFGQGTKLEIKR
B2: humanized anti-human PD-L1 monoclonal antibody VLS15-VHS12 P3 (antibody, human IgG1, kappa, V domains shown)
VH: B1 VH with Q1E, T23K, G56A
VL: B1 VL with H37Q, A43S
B3: humanized anti-human PD-L1 monoclonal antibody VLS10-VHS7 P2 (antibody, human IgG1, kappa, V domains shown)
VH: B1 VH with N55S
VL: B1 VL
B4: humanized anti-human PD-L1 monoclonal antibody VLS10-VHS7 P1 (antibody, human IgG1, kappa, V domains shown)
VH: B1 VH with N55Q
VL: B1 VL
B5: humanized anti-human PD-L1 monoclonal antibody VLS15-VHS12 P1 (antibody, human IgG1, kappa, V domains shown)
VH: B1 VH with Q1E, T23K, N55Q
VL: B1 VL with H37Q, A43S
B6: humanized anti-human PD-L1 monoclonal antibody VLS15-VHS12 P2 (antibody, human IgG1, kappa, V domains shown)
VH: B1 VH with Q1E, T23K, N55S
VL: B1 VL with H37Q, A43S
B7: humanized anti-human PD-L1 monoclonal antibody VLS15-VHS12 (antibody, human IgG1, kappa, V domains shown)
VH: B1 VH with Q1E, T23K
VL: B1 VL with H37Q, A43S
B8: humanized anti-human PD-L1 monoclonal antibody VLS10-VHS7 P3 (antibody, human IgG1, kappa, V domains shown)
VH: B1 VH with G56A
VL: B1 VL
B9: murine anti-human PD-L1 monoclonal antibody secreted by the clone 34-35 (antibody, V domains shown)
VH: EVQLQQSGAELVKPGASVKLSCTASGFNIEDTYIHWVMQRPEQGLEWIGRIDPANGNTKYDPKFQGKATITADTSSNTAYLQLSSLTSEDTAVYYCGRGLGAWFAYWGQGTLVTVSA
VL: DIVMTQSHKVMSTSVGDRVTITCKASQDVHTAVAWIHQKPGQSPKLLIYSASNRYTGVPDRFTGSGSGTDFTFTISSVQAEDLAVYYCQQHYITPLTFGAGTTLELK
notes: also called murine monoclonal antibodies

Positions count from the first letter of the chain named.

The target of one experiment is T1, recombinant human PD-L1 (Sino Biological Inc.) (human, UniProt Q9NZQ7 19-239). The experiment can be described thus: ELISA, human PD-L1 coated. As for the experimental part: (§1) A 96-well high-adsorption ELISA plate was coated with 1 μg/mL of the recombinant human PD-L1 (Sino Biological Inc.) at 100 μL per well using carbonate buffer solution, pH=9.6 at 4° C. overnight. The plate was washed 5 times with PBST, and then blocked using PBST with 1% BSA, 300 μL/well, and incubated at 25° C. for 1 hour, and then washed 5 times with PBST. […] The horseradish peroxidase-labeled anti-human IgG antibody (Chemicon, catalog number AP309P) diluted 1:10000 in PBST with 1% BSA was then added, 100 μL per well, and incubated at 25° C. for 1 hour. The plate was washed 5 times with PBST. The colorimetric substrate TMB was added, 100 μL/well, and developed at room temperature for 10 minutes. 1M H₂SO₄ was added, 100 μL/well, to stop the development. The absorbance at 450 nm was read on a microplate reader.
T1 sequence (Q9NZQ7 19-239 limits assumed): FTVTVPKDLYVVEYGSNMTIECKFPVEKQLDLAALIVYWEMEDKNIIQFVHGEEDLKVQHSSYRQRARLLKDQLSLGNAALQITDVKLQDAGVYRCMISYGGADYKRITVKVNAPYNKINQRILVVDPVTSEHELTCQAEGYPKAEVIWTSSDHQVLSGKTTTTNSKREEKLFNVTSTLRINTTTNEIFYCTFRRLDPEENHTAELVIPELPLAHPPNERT
Consider B1, for which the EC50 worked out at 0.067 nM.
Still for that read-out and setting: next, B2: 0.075 nM; B3: 0.059 nM; B4: 0.067 nM.
As for B5, the EC50 is 0.048 nM.
The same measure, in the same setting: as for B6, the figure is 0.06 nM; as for B7, 0.046 nM; as for B8, 0.063 nM.

In the next experiment the target is T1, recombinant human PD-L1 (Sino …). Nature of the experiment: ELISA, plate coated with 1 ug/mL recombinant human PD-L1, anti-mouse IgG-HRP, OD450. The protocol: The plate was washed 5 times with PBST, and then blocked using PBST with 1% BSA, 300 μL/well, and incubated at 25° C. for 1 hour, and then washed 5 times with PBST. […] The plate was washed 5 times with PBST. The colorimetric substrate TMB was added, 100 μL/well, and developed at room temperature for 10 minutes. 1M H₂SO₄ was added, 100 μL/well, to stop the development. The absorbance at 450 nm was read on a microplate reader.
On the technique in general: An ELISA detects its analyte on a solid surface through an enzyme-linked reagent.
B9: the EC50 amounted to 0.494 nM.

The target in another experiment is T2, recombinant human PD-L1-Fc protein (human, UniProt Q9NZQ7 19-238, limits assumed).
T2 construct: Prepared by Beijing Hanmi Pharmaceutical; The GenBank number is NP_001254635.1
T2 sequence (Q9NZQ7 19-238 limits assumed): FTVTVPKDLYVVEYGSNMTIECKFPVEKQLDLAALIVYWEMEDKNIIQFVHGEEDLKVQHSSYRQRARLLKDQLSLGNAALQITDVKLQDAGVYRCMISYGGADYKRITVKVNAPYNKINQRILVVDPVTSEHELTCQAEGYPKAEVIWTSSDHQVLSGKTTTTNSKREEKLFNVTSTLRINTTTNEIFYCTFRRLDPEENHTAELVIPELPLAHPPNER
The experiment can be described thus: competition ELISA: PD-L1-Fc coated, competitor biotin-labelled PD-1-Fc. The protocol: as §1, with “PD-L1-Fc” for “PD-L1 (Sino Biological Inc.)”, “Streptavidin-HRP (BD Pharmingen,” for “horseradish peroxidase-labeled anti-human IgG antibody (Chemicon,”, “554066)” for “AP309P)”, “1:1000” for “1:10000”
As for B1, the IC50 was found to be 0.749 nM.
Regarding B2, the IC50 amounted to 0.613 nM.
The same measure, in the same setting: as for B3, the figure is 0.725 nM; as for B4, 0.756 nM.
The same measure, in the same setting: as for B5, the figure is 0.567 nM; as for B6, 0.585 nM; as for B7, 0.666 nM.
Still for that read-out and setting: as for B8, the figure is 0.617 nM.

The target in a further experiment is T2, recombinant human PD-L1-Fc protein. Nature of the experiment: blocking ELISA, plate coated with 1 ug/mL human PD-L1-Fc; blocked ligand biotin-labelled PD-1-Fc at 20 nM final, streptavidin-HRP, OD450. As for the experimental part: as §1, with “PD-L1-Fc” for “PD-L1 (Sino Biological Inc.)”, “Streptavidin-HRP (BD Pharmingen,” for “horseradish peroxidase-labeled anti-human IgG antibody (Chemicon,”, “554066)” for “AP309P)”, “1:1000” for “1:10000”
Regarding B9, the IC50 stood at 0.61 nM.

The target of the next experiment is T1, recombinant human PD-L1 (Sino …). The experiment can be described thus: PD-L1/CD80 blocking assay, competitor CD80, format not described.
In the case of B1, the IC50 is 0.89 nM.
For the molecule B2, the 50% inhibitory concentration (IC50) worked out at 0.813 nM.
On to B3, for which the IC50 was 0.857 nM.
The same measure, in the same setting: as for B4, the figure is 0.865 nM; as for B5, 0.795 nM.
The same measure, in the same setting: next, B6: 0.755 nM.
On the same count and under the same terms, as for B7, the figure is 0.802 nM.
Regarding B8, the IC50 was found to be 0.804 nM.

For another experiment the target is unchanged. Nature of the experiment: SPR, Biacore X100. As for the experimental part: This instrument utilizes optical surface plasmon resonance technology to detect the association and dissociation between the molecules coated on the biochip and the molecules to be tested. Association constants and dissociation constants were analyzed and calculated by Biacore X100 evaluation software. […]
For orientation: In SPR one partner is held on a chip, and binding of the other changes the refractive index at the surface.
In the case of B1, the Kd was 1.71 nM, the koff was found to be 0.000584 s⁻¹ and the kon stood at 341000 M⁻¹ s⁻¹.
The matching figures for B2: 1.56 nM, 0.000528 s⁻¹ and 338000 M⁻¹ s⁻¹.
Taken in the same sequence, the figures for B3 were 3.23 nM, 0.000994 s⁻¹ and 307000 M⁻¹ s⁻¹.
B4: the Kd was determined as 3.16 nM, the koff came to 0.00108 s⁻¹ and the on-rate constant (kon) was 341000 M⁻¹ s⁻¹.
Taken in the same sequence, the figures for B5 were 2.56 nM, 0.000833 s⁻¹ and 326000 M⁻¹ s⁻¹.
Take B6: the equilibrium dissociation constant (Kd) turned out to be 1.94 nM, the koff was determined as 0.00072 s⁻¹ and the kon was determined as 372000 M⁻¹ s⁻¹.
For B7, the Kd stood at 1.39 nM, the koff turned out to be 0.000477 s⁻¹ and the kon was found to be 342000 M⁻¹ s⁻¹.
On to B8, for which the Kd stood at 2.93 nM, the koff came to 0.000747 s⁻¹ and the kon was 255000 M⁻¹ s⁻¹.

A further experiment shares this target. Nature of the experiment: affinity determination (dissociation constant), method not stated.
Take B1: the koff was determined as 0.000672 s⁻¹.
Turning to B7, the koff was 0.000486 s⁻¹.

For orientation: EC50 means the concentration that produces a half-maximal response. By IC50 is commonly meant the concentration that gives 50% inhibition. Broadly, the Kd is the concentration at which binding is half-saturated. In general, koff refers to a measure of how fast the partners let go of each other. Broadly, the kon is the rate constant with which the complex forms.

The record behind these values is US20240301068A1 (BEIJING HANMI PHARMACEUTICAL, published 2024).
